From PMC4820785 (Nature Communications, 2016)

Target: T1, Ssa1 (UniProt P10591 1-642)
T1 construct: also called a member of the Hsp70 family (Ssa1); Saa1
Experiment: ThT aggregation kinetics, global
Details: both partners purified

T1 sequence (P10591 whole entry): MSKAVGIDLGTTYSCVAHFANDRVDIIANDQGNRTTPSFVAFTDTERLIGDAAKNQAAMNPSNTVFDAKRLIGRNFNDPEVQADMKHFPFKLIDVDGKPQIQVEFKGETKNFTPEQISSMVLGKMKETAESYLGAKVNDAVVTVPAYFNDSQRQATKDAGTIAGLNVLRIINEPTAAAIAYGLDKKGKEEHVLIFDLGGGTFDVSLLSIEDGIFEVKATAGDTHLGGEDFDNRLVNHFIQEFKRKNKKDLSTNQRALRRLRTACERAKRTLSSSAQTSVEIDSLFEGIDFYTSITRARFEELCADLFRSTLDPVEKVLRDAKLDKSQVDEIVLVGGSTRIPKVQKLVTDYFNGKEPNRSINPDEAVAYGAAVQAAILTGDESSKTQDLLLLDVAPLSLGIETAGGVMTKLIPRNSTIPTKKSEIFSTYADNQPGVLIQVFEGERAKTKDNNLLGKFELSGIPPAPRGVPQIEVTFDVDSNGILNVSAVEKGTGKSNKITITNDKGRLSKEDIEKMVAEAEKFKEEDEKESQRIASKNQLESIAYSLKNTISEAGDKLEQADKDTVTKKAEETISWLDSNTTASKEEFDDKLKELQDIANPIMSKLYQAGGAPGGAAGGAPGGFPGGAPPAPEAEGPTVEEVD

B1: yeast prion protein Ure2p (natural protein, UniProt P23202 1-354, looked up)
chain: MMNNNGNQVSNLSNALRQVNIGNRNSNTTTDQSNINFEFSTGVNNNNNNNSSSNNNNVQNNNSGRNGSQNNDNENNIKNTLEQHRQQQQAFSDMSHVEYSRITKFFQEQPLEGYTLFSHRSAPNGFKVAIVLSELGFHYNTIFLDFNLGEHRAPEFVSVNPNARVPALIDHGMDNLSIWESGAILLHLVNKYYKETGNPLLWSDDLADQSQINAWLFFQTSGHAPMIGQALHFRYFHSQKIASAVERYTDEVRRVYGVVEMALAERREALVMELDTENAAAYSAGTTPMSQSRFFDYPVWLVGDKLTIADLAFVPWNNVVDRIGINIKIEFPEVYKWTKHMMRRPAVIKALRGE
notes: also called prion Ure2p
B1 was tested, and the Ka was 300000 M⁻¹.
